Experimental data published in the supplement of paper PMC12042874.
± gives the uncertainty stated by the source.

Assay: amyloid nucleation score (Sup35N fusion, yeast selection) (log enrichment); library NNK2; higher = more nucleation; inactive = no reads after selection
Summary of the method: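 The nucleation score is a DiMSum log enrichment of output over input reads, centred on the mode score of non-aggregating sequences. Sequences under 100 input reads were excluded, and reads came from Illumina sequencing of plasmid inserts. Psi-negative yeast expressing Sup35N fused to peptides of 20 random codons were induced with 100 μM copper sulfate for 24 hours and grown 7 days at 30°C on medium lacking adenine and uracil. Random libraries had three technical output replicates.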

| Substance | amyloid nucleation score |
| --- | --- |
| ATYIGRSNVSRWVVRAMSSS | 5.25 ± 0.073 |
| MFSESE | -0.275 ± 0.35 |
| NFKCFTRRVNWESYITEVVR | 3.19 ± 0.068 |
| WILGKFTDKFRSSRHRRNRA | 0.787 ± 0.25 |
| SESYVLYNIFGFSVKLDEHG | -1 ± 1 |
| LTIVWLVVVYGLWGVSTFSL | inactive |
| TVIAEPIRDEQCTIYHRCGV | 0.554 ± 0.38 |
| CFRLD | inactive |
| LWNWRACARLG | 1.25 ± 0.24 |
| AVAASLMFYVCFITADIADM | 0.859 ± 0.74 |
| DRWMTGMDAVYLHRRGPLFF | 0.13 ± 0.8 |
| LQDYCACNGVSCCIVYCKSF | 8.693 ± 0.053 |
| LCISIRD | -0.111 ± 0.8 |
| CYINKVRCMMHLWDHDDTWG | 0.734 ± 0.81 |
| RVCPLLYYGRDLLQLTMSSM | 0.314 ± 0.53 |
| SGRRLRGSKVSGWR | -1.12 ± 0.76 |
| LNYRH | inactive |
| GVPESGIFLRAHY | inactive |
| YMVCLRSGSIPVIDLPWYSL | -0.12 ± 1 |
| YQSPCVTVVSGKRALPRGGR | -0.001 ± 0.28 |
| FATKRERNVWFMSIEWFVRG | -0.707 ± 0.44 |
| DLSVLDLGVLFINRFTRTLE | inactive |

| Substance | amyloid nucleation score |
| --- | --- |
| FASLFPKAPERTEVSEPYRR | -0.76 ± 0.5 |
| WDIYQVGGTMSLDVFVKV | -0.2 ± 0.3 |
| EADLYSTAIQLDK | -0.313 ± 0.44 |
| GTLPSGICSRKGMPT | 0.283 ± 0.28 |
| TLQKELSHVQETRYTW | -0.288 ± 1 |
| MCSMCIVLPPVCVLKAKVYT | 3.69 ± 0.081 |
| RLSNELKRMVYSDQVQGYSR | -0.357 ± 0.48 |
| FPKIQSKFSRDIFSDGNEYE | inactive |
| VWVKRVDASSCAVS | 1.26 ± 0.38 |
| MTSLGVPNAYCEGNGAWYHR | 0.321 ± 0.21 |
| RFSYFFHVLMRGRNYVQATG | inactive |
| IYLSLATCSGRRRSYSKPSR | 0.645 ± 0.47 |
| SLYVKFPFMSDWLSMNHRMN | -0.64 ± 0.34 |
| PRVVGGFANISMWLATGTPF | 2.94 ± 0.093 |
| AMAVLALHTVRSQLP | 5.988 ± 0.037 |
| YLTRAIIVFIS | 3.66 ± 0.062 |
| WMRSIWLSQHFLS | 0.292 ± 0.41 |
| DYDGTPGCVEKSTIIFMV | inactive |
| GFKVF | -0.937 ± 0.31 |
| RLKAPLPYDEIFQLFVIGEI | 0.698 ± 0.8 |
| SCSYRFSRSDDNCKTRFIAF | -0.582 ± 1.1 |
| VSCCCFFGLTLAVLGHSEVS | 3.55 ± 0.12 |

| Substance | amyloid nucleation score |
| --- | --- |
| KAIDLRVPSMYYRPWVV | -0.58 ± 0.76 |
| CLLHMWIGLSSKVGGVRDA | -0.781 ± 0.79 |
| FMGTLNRELYTGRYGVG | -0.243 ± 1 |
| VERVPGCTRTRTFWLNSSDW | 0.591 ± 0.25 |
| GVVEYRNFADSIVYGSRKFK | -0.685 ± 0.76 |
| HTWDLYYAIYSA | -1.19 ± 0.36 |
| HTFYVNKLPLPKL | 0.875 ± 0.45 |
| HRSNFVVKLAASGSFTTGCR | 0.376 ± 0.29 |
| AISPVLC | 1.9 ± 0.43 |
| FRNENC | inactive |
| TYHCN | 0.765 ± 0.43 |
| YRIQKHWCQLS | -0.087 ± 0.76 |
| NYILRQAGEMFGLLGDFGDG | -0.165 ± 0.45 |
| LICLSMSQCMDCNLGNSWWV | inactive |
| LCILTRTYSAQA | -0.238 ± 0.49 |
| KRRSNSTILGPINSPRVAEG | -0.258 ± 0.42 |
| DSFFAEMDNLNSGRTPFKGT | inactive |
| AILYDHSYSYWVSFRNVKCK | 0.215 ± 0.65 |
| NIFRESEAERRALNKFYMSF | 0.04 ± 0.76 |
| TGHLEEMYKYDALYSSAKRA | 1 ± 0.48 |
| VYNFSFSNSNVK | 6.669 ± 0.047 |
| EYLTNVMVRGDYFGWDHAIA | -0.949 ± 0.63 |

| Substance | amyloid nucleation score |
| --- | --- |
| SRRLCVTFAVFGSHKVLLS | inactive |
| CTEFSLTDCSSG | inactive |
| IVRVSMGYGIIPLICSKTEG | 0.859 ± 0.74 |
| TSECPVWNSFYVQNGSDLSI | 1.34 ± 0.14 |
| NYYINDADGRLLARWLYKLF | -0.865 ± 0.25 |
| YNTVVVPDVMTGRF | -0.599 ± 1 |
| SVGGR | -0.288 ± 0.8 |
| ALLDCMWCTCVCKVSSGVVH | inactive |
| GKPCH | 0.52 ± 0.33 |
| CRSAVRRILGFNLSRVFSWF | -0.417 ± 0.64 |
| DYQGGCSILTSEDEPYEVAC | 1.56 ± 0.44 |
| ITILCLNVSMVYEVGQ | 7.778 ± 0.042 |
| NLNIFGLAMLCNRRGAYMRK | 6.829 ± 0.039 |
| YDVGTPRIRDFLCAIDRGNH | 0.106 ± 0.34 |
| YECGCHLFD | -0.225 ± 0.74 |
| AMYIIAFSPTK | 1.36 ± 0.67 |
| VWGLLTIPCVSQIRCRCGFS | 0.749 ± 0.53 |
| SFKLGSHVSDKKIGMDLCFT | -0.361 ± 0.4 |
| RFICSAPAVPILIICWS | -1.65 ± 0.76 |
| RTSTYLCMAVNKGVFVSNSV | -0.576 ± 0.64 |
| FMDIHRKMGTHVFLRKCFRI | -0.771 ± 1.1 |
